Source: patent US20240350646A1, “METHODS AND COMPOSITIONS FOR DELIVERY TO AND ACROSS THE BLOOD BRAIN BARRIER” (NUtech Ventures, priority 2021, published 2024)

Experiments:
human claudin-3 [1] = molecular target: T1, human claudin-3 (human, UniProt O15551 1-220, limits assumed); assay: MST, sigmoidal dose-response fit (GraphPad Prism) of the FIG. 10A data; fit without amplitude, confidence interval undefined [panel B]
T1 sequence (looked up): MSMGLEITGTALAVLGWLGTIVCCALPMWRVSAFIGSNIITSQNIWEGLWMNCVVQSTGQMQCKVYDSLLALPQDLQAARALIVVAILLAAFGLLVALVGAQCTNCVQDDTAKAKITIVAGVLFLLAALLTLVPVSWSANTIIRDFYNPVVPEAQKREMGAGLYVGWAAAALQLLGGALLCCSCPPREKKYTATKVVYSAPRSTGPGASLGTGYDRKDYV
Experimental: (§1) FIG. 10A is a graph showing binding of human claudins 3, 4 and 9 to C1C2-NPs using microscale thermophoresis. […] FIG. 10C is a graph showing the binding of human claudins 4 and 9 to control NPs monitored using microscale thermophoresis. […] Data fitting for human claudins 3, 4 and 9 were performed using Graph Pad Prism.
(§2) Human claudin-1 was expressed and purified as reported previously (Vecchio & Stroud, 2019, PNAS USA, 116:17817-24). MST measurements were performed using a Monolith instrument (NanoTemper Technologies). For experiments with human claudin-1, the assay buffer contained 10 mM Tris HCl, pH 8.0, 100 mM NaCl, 4% glycerol, and 0.04% n-Dodecyl-β-D-Maltopyranoside (β-DDM). NPs and peptides were labeled with AF647 prior to MST analysis as described above. For the binding experiments, the concentration of human claudin-1 was varied from 2.2-73,500 nM and the AF647-labeled C1C2-NP was fixed at 70 nM, while the AF647 labeled NPs and AF647 labeled C1C2 peptide were fixed at 1 and 0.3 μM, respectively. Binding of the AF647 labeled C1C2-NP to human claudin-3, -4, and -9 were tested using 0.4-14000 nM, 0.8-28000 nM, and 0.6-20000 nM, respectively; with the AF647 labeled C1C2-NP fixed at 70 nM. This assay buffer was similar, except β-DDM was replaced with 0.1% n-Undecyl-β-D-Maltopyranoside (beta-UDM).

[2] = molecular target: T2, recombinant human claudin-1 (human, UniProt O95832 1-211, limits assumed); assay: microscale thermophoresis, AF647 labeled C1C2-NP fixed at 70 nM, human claudin-1 titrated 2.2-73,500 nM
T2 construct: Expressed and purified as in Vecchio & Stroud 2019, in beta-DDM detergent; also called CLDN1
T2 sequence: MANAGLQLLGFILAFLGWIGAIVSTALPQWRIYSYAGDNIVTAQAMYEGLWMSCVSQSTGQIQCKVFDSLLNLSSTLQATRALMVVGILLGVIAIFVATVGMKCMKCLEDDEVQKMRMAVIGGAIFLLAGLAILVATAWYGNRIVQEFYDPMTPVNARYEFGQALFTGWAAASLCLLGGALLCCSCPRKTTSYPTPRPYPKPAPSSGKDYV
Experimental: For the binding experiments, the concentration of human claudin-1 was varied from 2.2-73,500 nM and the AF647-labeled C1C2-NP was fixed at 70 nM, while the AF647 labeled NPs and AF647 labeled C1C2 peptide were fixed at 1 and 0.3 μM, respectively. Binding of the AF647 labeled C1C2-NP to human claudin-3, -4, and -9 were tested using 0.4-14000 nM, 0.8-28000 nM, and 0.6-20000 nM, respectively; with the AF647 labeled C1C2-NP fixed at 70 nM. This assay buffer was similar, except β-DDM was replaced with 0.1% n-Undecyl-β-D-Maltopyranoside (beta-UDM). In order to check non-specific binding of β-DDM micelles to the AF647 labeled C1C2-NP, the concentration of beta-DDM was varied from 0.03-900 μM and the concentration of the AF647-labeled C1C2-NP was fixed at 1 μM. A similar experiment was performed wherein the concentration of beta-UDM was varied from 0.3-10,000 μM and the concentration of AF647-labeled control NP was fixed at 1 μM. […] All experiments were conducted at 23° C. using the nano-red channel of the Monolith instrument and the data were analyzed by using either Monolith analysis software or Graph Pad Prism, version 9 (Graph Pad Software, San Diego, California).
To assess the binding affinity of C1C2-NPs to human claudin-1, C1C2-NPs were labeled with AF647 and binding to recombinant human claudin-1 quantified using MST. […]

human claudin-3 [3] = molecular target: T1, human claudin-3; assay: MST, sigmoidal dose-response fit (GraphPad Prism) of the FIG. 10A data, M is the unit of the concentration axis of panel A; fit without amplitude, confidence interval undefined [panel B]
Experimental: as §1, §2

human claudin-9 = molecular target: T3, human claudin-9 (human, UniProt O95484 1-217, limits assumed); assay: MST, sigmoidal dose-response fit (GraphPad Prism) of the FIG. 10A data, M is the unit of the concentration axis of panel A; fit did not converge [panel B]
T3 sequence (looked up): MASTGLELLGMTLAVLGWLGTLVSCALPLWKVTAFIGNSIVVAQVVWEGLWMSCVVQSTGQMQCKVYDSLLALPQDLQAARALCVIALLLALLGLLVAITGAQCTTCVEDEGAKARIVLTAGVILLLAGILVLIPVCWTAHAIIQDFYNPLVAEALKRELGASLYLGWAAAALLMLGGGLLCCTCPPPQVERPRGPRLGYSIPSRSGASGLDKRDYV
Experimental: as §1, §2

LogEC50 (human claudin-3 [1]): -7.05 | Kd [2]: 21 µM | EC50 (human claudin-3 [3]): 0.0881 µM | EC50 (human claudin-9): 218000 µM
B1: C1C2-NP (C1C2 peptide conjugated to PEG diacid coated ultrasmall Gd nanoparticles) (peptide)
peptide: Ac-SSVSQSTGQIQSKVDSLLNLNSTQATR-NH2
modifications: not fully specified; also: conjugated by EDC-NHS chemistry to PEG diacid on Gd oxide nanoparticle surface (19 peptides per 3.5 nm particle)
notes: The protein part is the C1C2 peptide; the core is not a protein; also called C1C2-NPs; C1C2 NPs
